Experimental findings from article PMC6573788 are described below.

For experiment [1], the target named is ΔRACK1 40S ribosomal subunit (human 40S subunit without RACK1) (human (endogenous in HAP1)) (UniProt P23396). Put plainly: native gel or EMSA. A general note: A gel shift assay detects complexes by their altered migration in electrophoresis.
The target is the same in experiment [2]. Briefly: FRET or BRET. In general terms: Bioluminescence resonance energy transfer reports proximity on the nanometre scale.

Regarding “native RACK1-ybbR expressed in ΔRACK1 HAP1 cells (from UniProt P63244 1-317) (natural protein)”, in experiment [1], the t1/2 of RACK1 on the ribosome came to 15 h.

B1: recombinant Asc1p-ybbR (S. cerevisiae RACK1 ortholog) (natural protein)
chain: MASNEVLVLRGTLEGHNGWVTSLATSAGQPNLLLSASRDKTLISWKLTGDDQKFGVPVRSFKGHSHIVQDCTLTADGAYALSASWDKTLRLWDVATGETYQRFVGHKSDVMSVDIDKKASMIISGSRDKTIKVWTIKGQCLATLLGHNDWVSQVRVVPNEKADDDSVTIISAGNDKMVKAWNLNQFQIEADFIGHNSNINTLTASPDGTLIASAGKDGEIMLWNLAAKKAMYTLSAQDEVFSLAFSPNRYWLAAATATGIKVFSLDPQYLVDDLRPEFAGYSKAAEPHAVSLAWSADGQTLFAGYTDNVIRVWQVMTAN
Take B1: in experiment [2], the kobs of the fast phase at 75 nM amounted to 0.2 s⁻¹ and the kon of the fast phase came out at 2e+06 M⁻¹ s⁻¹.
